Results taken from US20110044980A1.
“And” between values parts separate entries of the source, which are not always exact repeats. Equal values may be shown once.

What was measured:
FcgRI (human) = FcgRI (human) (UniProt P12314); experiment: flow cytometry (FACSCalibur), THP-1 cells, pH 7.4, 100 ug/ml
FcgRIIb (human) [1] = molecular target: FcgRIIb (human) (UniProt P31994); experiment: flow cytometry (FACSCalibur), CHO-FcgRII-b-1 cells, pH 7.4, 100 ug/ml
FcgRIIa (human) = FcgRIIa (human) (UniProt P12318); experiment: flow cytometry (FACSCalibur), K562 cells, pH 7.4, detection reagent alone
FcgRIIa (human), sequence (P12318 34-317): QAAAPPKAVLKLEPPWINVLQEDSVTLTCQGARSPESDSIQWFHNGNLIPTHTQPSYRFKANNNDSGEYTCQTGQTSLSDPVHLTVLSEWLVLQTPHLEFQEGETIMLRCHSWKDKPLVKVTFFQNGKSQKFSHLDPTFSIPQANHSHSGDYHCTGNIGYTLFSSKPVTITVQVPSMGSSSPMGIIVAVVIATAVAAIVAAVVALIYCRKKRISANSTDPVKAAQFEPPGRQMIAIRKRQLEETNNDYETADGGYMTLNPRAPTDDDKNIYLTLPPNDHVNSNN

FcRn = FcRn (UniProt P55899); experiment: flow cytometry (FACSCalibur), FcRnGPI-CHO cells, pH 6.4, detection reagent alone
FcgRIIb (human) [2] = molecular target: FcgRIIb (human) (UniProt P31994); experiment: flow cytometry (FACSCalibur), CHO-FcgRII-b-1 cells, pH 7.4, detection reagent alone

Substance	Fc Receptor Binding Geometric Mean (FcgRI (human))	Fc Receptor Binding Geometric Mean (FcgRIIb (human) [1])	Fc Receptor Binding Geometric Mean (FcgRIIa (human))	Fc Receptor Binding Geometric Mean (FcRn)	Fc Receptor Binding Geometric Mean (FcgRIIb (human) [2])
EGFR (Erbitux ®, Imclone) (antibody)	101 and 67	3			
R-PE conjugated anti-human IgG F(Ab')2 (Jackson ImmunoResearch, Cat.#109-116-170)			3	6 and 5	3
